According to patent US20140348805A1:

Molecular target: HLA-A2 (HLA-A*0201) presenting tyrosinase369-377 peptide … on cells (human)
Test: cell-based or functional assay

amount of peptide presented by T2 cells to cause release of 2000 pg/ml interferon-gamma, fold lower than TCR-D115 | maximum level of interferon-gamma in 24 hours (T2 cells pulsed with YMD peptide) | peptide amount at first detection of cytokine secretion, fold less than TCR-D115 (PBMC pulsed with YMD peptide) | peptide concentration for 50% of maximal interferon-gamma release, fold lower than TCR-D115 (T2 cells pulsed with YMD peptide) | IFN-γ secretion after co-culture with Mel-93.04A12 (HLA-A2+tyrosinase+) | peptide concentration needed for 50% relative lysis (half-maximum lysis), 51Cr-release assay, peptide-pulsed T2 cells | specific lysis of melanoma cells, 51Cr-release assay | Substance
15000 fold | 5000 pg/mL | 1000 fold | 100 fold |  |  |  | TCR-T58 with murine constant regions (TCRbeta-P2A-TCRalpha, codon-optimized) (from UniProt P01849 1-136)
 |  |  |  | 1230 pg/mL | 600 pM | 76% | TCR of T cell clone T58 (TCR-T58), human constant regions (from UniProt P01848 1-140)
